From the RNAGym collection of RNA variant scans (doi:10.7554/elife.80360) come the findings set out here.

The chains are these.
B1: HDV Ribozyme (parent)
chain: GGCCGGCAUGGUCCCAGCCUCCUCGCUGGCGCCGGCUGGGCAACAUUCCGAGGGGACCGUCCCCUCGGUAAUGGCGAAUGGGACCCA

This data set covers variants of B1. Description: self-cleavage, relative activity (ratio to wild type); higher = more cleavage; co-transcriptional.
With GGCCGGCAUGGUCCCAGCCUCCUCGCUGGCGCCGGCUGGGCAACAUUCCGUGGGGACCGUCCCCUCGGUAAUGGCGAAUGGUACCCA [A51U G82U], the self-cleavage is 0.373.
Then GGCCGGCAUGGUCCCAGGCUCCUCGCUGGCGCCGGCUGGGCAACAUUCCGAGGGGACCCUCCCCUCGGUAAUGGCGAAUGGGACCCA [C18G G59C], with 0.26; and GGCCGGCAUGGUCCCAGCCUCCUCGCUGGCGCCGGCUGGGCAACAUUCCGAGGGGACCGUCCCCUCGGUAAUGGAGAAUGGGACCUA [C75A C86U], with 0.0615.
Regarding GGCCGGCGUGGUCCCAGCCUCCUCGCGGGCGCCGGCUGGGCAACAUUCCGAGGGGACCGUCCCCUCGGUAAUGGCGAAUGGGACCCA [A8G U27G], the self-cleavage amounted to 0.831.
On to GGCCGGCAUGGUCCCAGCCUCCUCGCUGGCGCCGGCUGGGCAAGAUUCCGAGGGGACCGUACCCUCGGUAAUGGCGAAUGGGACCCA [C44G C61A], for which the self-cleavage is 0.724.
On to GCCCGGCAUGGUCCCAGCCUCGUCGCUGGCGCCGGCUGGGCAACAUUCCGAGGGGACCGUCCCCUCGGUAAUGGCGAAUGGGACCCA [G2C C22G], for which the self-cleavage was found to be 0.0875.
As for GGCGGGCAUGGACCCAGCCUCCUCGCUGGCGCCGGCUGGGCAACAUUCCGAGGGGACCGUCCCCUCGGUAAUGGCGAAUGGGACCCA [C4G U12A], the figure is 0; as for GGCCGGCAUGGUCCCAGCCUCCUCGCUGGCGCCGGCUGGGCCACAUUCCGAGGGGACCGUCCCCUCGGUGAUGGCGAAUGGGACCCA [A42C A70G], 0.312; as for GGCCGGCAUGGUCCCAGCCUCCUCGCUGGCGCCGGCUGGGCAACAUUCCCAGGGGACCGUCCCCUCGGUAAUGGCGGAUGGGACCCA [G50C A77G], 0.665.
As for GGCCGGCAUGGUCCCAGCCUCCUCGAUGGCGCCGGCUGGGCAACAUACCGAGGGGACCGUCCCCUCGGUAAUGGCGAAUGGGACCCA [C26A U47A], the figure is 0.731; as for GGCCGGCAUGGUCCCAGCCUCCGCGCUGGCGCCGGCCGGGCAACAUUCCGAGGGGACCGUCCCCUCGGUAAUGGCGAAUGGGACCCA [U23G U37C], 0.751; as for GGCCGGCAUGGUCCCAGCCUCCUCGCUGGCGCCGGCUGGGCAACAUUCCGAGGGGGCCGUCCCCUCGGUAUUGGCGAAUGGGACCCA [A56G A71U], 0.957.
As to GGCCGGCAUGGUCCCAGCCUCCUCGCUGGCGCCGGCUGGGCAACAUUCCGAGAGGACCGUCCCCUCGGUAAUGGCGAAUGGGACCCC [G53A A87C], the self-cleavage turned out to be 1.1.
For GGCCGGCAUGGUCCCAGCCUCCUCGCUGGCGCCGGCUGGGCAAGAUUCCGAGGGGACCGUCCCCUCGGUAAUGGCGAAUGGGGCCCA [C44G A83G], the self-cleavage is 0.233.
As for GGCCGGCAUGGUCCCAGCCUCCUCGCUGGCGCCGGCUGGGCCACAUUCCGAGGGGACCGUCCCCUCGGUAAUGGCGCAUGGGACCCA [A42C A77C], the figure is 0.161.
As for GGCCGGCAUGGUCCCAGCCUCCUCGCUGGCGCCGGCUGGGCAACAUUCCGACUGGACCGUCCCCUCGGUAAUGGCGAAUGGGACCCA [G52C G53U], the figure is 0.782.
Regarding GGCCGGCAUGAUCCCAGCCUCCUCGCUGGCGCCGGCUGGGCAACAUUCCGCGGGGACCGUCCCCUCGGUAAUGGCGAAUGGGACCCA [G11A A51C], the self-cleavage is 0.665.
Then GGCCGACAUGGUCCCAGCCUCCUCGCUGGCGCCGGCUGGGCAACAUUCCGAGGGGACCGACCCCUCGGUAAUGGCGAAUGGGACCCA [G6A U60A], with 0.811; and GGCCGGCAUGGUCCCAGCCUCCUCUCUGGCGCCGGCUGGCCAACAUUCCGAGGGGACCGUCCCCUCGGUAAUGGCGAAUGGGACCCA [G25U G40C], with 0.0297.
Consider GGCCGGCAUGGUCCCAGCCUCCUCGCUGGCGCCGGCUGGGCAACAUUCCGAGGAGACCGUCCCCUCGGUAAUGGCGACUGGGACCCA [G54A A78C], for which the self-cleavage came out at 0.247.
Then GGCCGGCAUGGUCCCAGCCUCCUCGCUGGCGCCGGCUGUGCAACAUUCCGAGGGGACCGUCCCCUCGGUAAUGGCGAAUGGGACUCA [G39U C85U], with 0.674; and GGCCGGCAUGGUCCCAGCCUCCUCGCUGGCGCCGGCUGGGCAACAUUCCGAGGGGACGGUCCCCUCGGUAAUGGCGAAUGAGACCCA [C58G G81A], with 0.243; and GGCCGGCAUGGUCCCAGCCUCCUCGCUGGCGCCGUCUGGGCAACAUUCCGAGGGGACCGUCCCCUCGGUAAUGGCGAAUGGGACCCC [G35U A87C], with 0.432.
Then GUCCGGCAUGGUCCCAGCCUCCUCGCUGGCGCCGGCUGGGCAACAUUCCGAGGGGACCGUCUCCUCGGUAAUGGCGAAUGGGACCCA [G2U C62U], with 0.0314.
As for GGCCGGCAUGGUCCCAGCCUCCUCGCUGGCCCCGUCUGGGCAACAUUCCGAGGGGACCGUCCCCUCGGUAAUGGCGAAUGGGACCCA [G31C G35U], the figure is 0.158; as for CGCCGGCAUGGUCCCAGCCUCCUCGCUGGCGCCGGCUGGGCAACAUUCCGAGGGGACCGUCCGCUCGGUAAUGGCGAAUGGGACCCA [G1C C63G], 0.0639.
Consider GGCGGGCAUGGUCCCAGCCUGCUCGCUGGCGCCGGCUGGGCAACAUUCCGAGGGGACCGUCCCCUCGGUAAUGGCGAAUGGGACCCA [C4G C21G], for which the self-cleavage is 0.
For the variant GGCCGGCAUGGUCCCAGCCUCCUCGCUGGCGCCGGCCGGGCAACAUUCCGAGGGGACCGUCGCCUCGGUAAUGGCGAAUGGGACCCA [U37C C62G], the self-cleavage turned out to be 0.0723.
Consider GGCCGGCUUGGUCCCAGCCUCCUCGCUGGCGCCGGCUGGGCAACAUUCCGAGGGGACCGUCCCCUCGGUAAUGGCGAAUCGGACCCA [A8U G80C], for which the self-cleavage came out at 0.128.
Consider GGCCGGCAUGGUCCCAGCCUCCUCGCUGGCGCCGGCUGGGUAACAUUCCGAGGGGACCGUCCCCUCGGUAAUGGCGAAUGGGACACA [C41U C85A], for which the self-cleavage is 0.937.
GGCCGGCAUGGUCCGAGCCUCCUCGCUGGCGCCGGCUGGGCAACAUUCCGAGGGGACCGUCUCCUCGGUAAUGGCGAAUGGGACCCA [C15G C62U]: the self-cleavage was determined as 0.665.
As for GGCCGGCAUGGUCCCAGCCUCCUCGCUGGCGCCGGCUGGGCAACAUUCCGAGGGGACCGUCCCCUCGGCAAUGCCGAAUGGGACCCA [U69C G74C], the figure is 0.0923.
